Test results: US20220267421A1 (INVOX PHARMA, published 2022)

T1: human EpCAM-hFc (in-house production) (human, UniProt P16422 24-265, limits assumed)
T1 construct: not shown: human Fc
T1 sequence (looked up): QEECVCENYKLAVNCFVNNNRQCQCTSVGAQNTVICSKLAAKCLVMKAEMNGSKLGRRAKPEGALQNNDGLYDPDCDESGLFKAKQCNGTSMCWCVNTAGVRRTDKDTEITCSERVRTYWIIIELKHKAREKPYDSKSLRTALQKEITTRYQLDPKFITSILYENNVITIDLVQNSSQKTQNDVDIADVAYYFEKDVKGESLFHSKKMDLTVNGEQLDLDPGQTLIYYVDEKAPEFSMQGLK

T2: human CEACAM-5-His-Fc (Sino Biological, 1077-H03H) (human, UniProt P06731 35-685)
T2 construct: not shown: His tag and Fc
T2 sequence (looked up): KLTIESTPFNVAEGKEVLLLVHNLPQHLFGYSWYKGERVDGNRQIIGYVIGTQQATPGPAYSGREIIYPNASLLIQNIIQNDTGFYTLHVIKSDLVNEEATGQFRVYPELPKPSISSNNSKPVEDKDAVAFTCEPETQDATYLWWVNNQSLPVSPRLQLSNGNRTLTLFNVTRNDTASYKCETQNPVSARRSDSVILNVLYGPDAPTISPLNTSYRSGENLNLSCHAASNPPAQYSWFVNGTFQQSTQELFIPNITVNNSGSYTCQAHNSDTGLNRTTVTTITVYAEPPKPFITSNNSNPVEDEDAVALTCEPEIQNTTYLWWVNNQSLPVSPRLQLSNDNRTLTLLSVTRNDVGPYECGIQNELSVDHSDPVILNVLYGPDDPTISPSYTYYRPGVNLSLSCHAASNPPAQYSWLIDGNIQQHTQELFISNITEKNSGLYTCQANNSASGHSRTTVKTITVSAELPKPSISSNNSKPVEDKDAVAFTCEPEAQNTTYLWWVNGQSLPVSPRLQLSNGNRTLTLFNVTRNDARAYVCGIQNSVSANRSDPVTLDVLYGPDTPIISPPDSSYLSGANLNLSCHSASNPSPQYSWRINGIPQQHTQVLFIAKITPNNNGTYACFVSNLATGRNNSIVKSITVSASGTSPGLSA

T3: human E-Cadherin (R&D systems, 8505-EC) (human, UniProt P12830 155-707)
T3 sequence (looked up): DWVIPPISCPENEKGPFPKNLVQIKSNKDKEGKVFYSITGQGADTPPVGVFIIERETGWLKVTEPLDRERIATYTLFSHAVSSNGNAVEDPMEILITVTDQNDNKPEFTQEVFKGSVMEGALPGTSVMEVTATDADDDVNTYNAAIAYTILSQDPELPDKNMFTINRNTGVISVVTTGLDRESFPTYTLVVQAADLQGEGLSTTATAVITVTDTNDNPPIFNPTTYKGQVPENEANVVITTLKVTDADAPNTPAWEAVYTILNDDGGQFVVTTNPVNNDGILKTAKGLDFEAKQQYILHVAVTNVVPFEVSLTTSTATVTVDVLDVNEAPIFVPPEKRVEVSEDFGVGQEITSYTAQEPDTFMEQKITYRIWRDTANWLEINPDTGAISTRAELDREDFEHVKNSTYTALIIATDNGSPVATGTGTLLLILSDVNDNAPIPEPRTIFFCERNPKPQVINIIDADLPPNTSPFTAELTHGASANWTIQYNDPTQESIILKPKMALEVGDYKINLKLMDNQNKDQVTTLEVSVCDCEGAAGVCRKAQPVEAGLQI


Experiments:
[1] = target: T4, human MSLN-His-Avi (human, UniProt Q13421 296-598, single biotin (BirA) in the biotinylated form); test: ratio of the two SPR KD
T4 construct: Monomeric, made in HEK293-6E; Used both immobilised and in solution; also called hMSLN-His-Avi; biotinylated hMSLN-His-Avi

[2] = target: T4, human MSLN-His-Avi; test: SPR as Example 4.1 (about 40 RU instead of 100), MSLN immobilised
[3] = target: T4, human MSLN-His-Avi; test: SPR as Example 4.1 (about 40 RU instead of 100), MSLN in solution
[4] = target: T1, human EpCAM-hFc (in-house production); test: ELISA, antigen coated at 1 ug/ml
Experimental: (§1) A similar protocol was used as described in section 1.2.1 in which maxisorp plates were coated with 1 μg/ml of recombinant human MSLN-His-Avi, human CEACAM-5-His-Fc (Sino Biological, 1077-H03H), human E-Cadherin (R&D systems, 8505-EC), human Thrombomodulin (Peprotech, 100-58) or human EpCAM-hFc (in-house production). Binding of the anti-MSLN mAbs, tested at a concentration range of 0.02 to 1000 nM (3-fold dilutions) was detected using anti-human Fab-HRP (Sigma, A0293). Positive controls for the respective molecules included human EpCAM antibody (clone 2G8 from patent no. U.S. Pat. No. 8,236,308 B2) CEACAM-5 antibody (clone hMN15 from patent no. U.S. Pat. No. 8,771,690 B2), human E-Cadherin antibody, mouse IgG2b clone 180215 (R&D systems, MAB1838), human Thrombomodulin antibody, mouse IgG1, clone 501733 (R&D systems, MAB3947). The latter two were detected using goat anti mouse Fc-HRP (Sigma, A9309) as secondary mAb.

[5] = target: T2, human CEACAM-5-His-Fc (Sino Biological, …); test: ELISA, antigen coated at 1 ug/ml
Experimental: as §1

[6] = target: T3, human E-Cadherin (R&D systems, 8505-EC); test: ELISA, antigen coated at 1 ug/ml
Experimental: as §1

[7] = target: human Thrombomodulin (Peprotech, 100-58) (human, UniProt P07204 19-515); test: ELISA, antigen coated at 1 ug/ml
Experimental: as §1

[8] = target: T4, human MSLN-His-Avi; test: ELISA, hMSLN-His-Avi coated at 1 ug/ml
[9] = target: T5, cell surface human mesothelin (MSLN) (human, UniProt Q13421 296-598); test: flow cytometry, NCI-H226 cells (n = 3)
T5 construct: whole, on cells; also called cell surface MSLN
Experimental: Briefly, NCI-H226 cells (ATCC CRL-5826) were harvested from T175 cell culture flasks using StemPro Accutase (Gibco, A11105-01). Cells were centrifuged at 1200 rpm for 3 min and resuspended in ice cold FACS buffer made up of DPBS (Life Technologies, 14190169) and 1% BSA (Sigma-Aldrich, A7906) at 2×10⁶ cells/ml and 50 μl per well was seeded in a 96-well V-bottom plate (Costar, 3894). All mAbs tested were diluted in FACS buffer in 120 μl at a concentration range of 0.01-200 nM (4-fold dilutions). The NCI-H226 cells were then centrifuged, supernatant removed and cells resuspended in 100 μl of each mAb dilution and incubated at 4° C. for 45 min. Cells were washed twice by centrifugation with 150 μl FACS buffer, resuspended in 100 μl containing goat anti-human IgG (γ-chain specific) F(ab′)2 fragment-R-Phycoerythrin antibody (Sigma, P8047) diluted 1:1000 in FACS buffer and incubated at 4° C. for 45 min. The cells were washed once with 150 μl FACS buffer and then with 150 μl DPBS, resuspended in 150 μl DPBS containing DAPI (Biotium, 40043) at 1:10.000 and read on the BDCantoll or iQue (Intellicyt). Data was analysed using FlowJo v10 to determine the signal geometric mean for PE for live cells in each well.

[10] = target: T4, human MSLN-His-Avi; test: SPR (Biacore), hMSLN-His-Avi immobilised at 50 RU, mAb injected
Experimental: (§2) Human MSLN-His-Avi was immobilised on flow cell 2 on a CM5 Series S BIAcore sensor chip (GE Healthcare, BR100530) using an amine coupling kit (GE Healthcare, BR10050) to approximately 200 response units (RU). Flow cell 1 was left blank for subtraction. HEK293-6E supernatants or purified proteins were adjusted with HBS-EP+(GE Healthcare) to approximately 50 nM anti-MSLN mAb per sample. Samples were injected over flow cell 1 and 2 for 2.5 min at 30 μl/min and then allowed to dissociate in HBS-EP buffer for 2.5 min. Regeneration was achieved by injecting 10 mM glycine pH 1.5 (GE Healthcare, BR100354) for 30 seconds at a rate of 30 μl/min. Subtracted data (flow cell 2−flow cell 1) were analysed using BIAevaluation 3.2 Software (GE Healthcare).
(§3) For each bin described in 2.1.3, the binding kinetics were determined using the same method as described in section 2.1.2, except that human or cyno MSLN-His-Avi was immobilised at 50 or 100 RU. Clones were tested at a concentration range of 81 nM to 0.33 nM in 3-fold dilutions.

[11] = target: T4, human MSLN-His-Avi; test: SPR (Biacore), hMSLN-His-Avi immobilised at 100 RU, mAb injected
Experimental: as §2, §3

T4 sequence (Q13421 other isoform, or with tags, fused parts or gaps): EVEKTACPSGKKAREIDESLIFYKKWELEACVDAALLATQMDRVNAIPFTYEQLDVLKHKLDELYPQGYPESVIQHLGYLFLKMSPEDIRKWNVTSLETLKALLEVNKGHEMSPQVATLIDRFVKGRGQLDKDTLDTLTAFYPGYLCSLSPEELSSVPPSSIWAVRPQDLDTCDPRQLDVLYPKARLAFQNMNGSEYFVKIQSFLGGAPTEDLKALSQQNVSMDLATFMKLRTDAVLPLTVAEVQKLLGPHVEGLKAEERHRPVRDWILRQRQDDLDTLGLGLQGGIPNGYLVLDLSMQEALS
T5 sequence (Q13421 other isoform, or with tags, fused parts or gaps limits assumed): as the sequence (Q13421 other isoform, or with tags, fused parts or gaps) above
human Thrombomodulin (Peprotech, 100-58), sequence (P07204 19-515 limits assumed): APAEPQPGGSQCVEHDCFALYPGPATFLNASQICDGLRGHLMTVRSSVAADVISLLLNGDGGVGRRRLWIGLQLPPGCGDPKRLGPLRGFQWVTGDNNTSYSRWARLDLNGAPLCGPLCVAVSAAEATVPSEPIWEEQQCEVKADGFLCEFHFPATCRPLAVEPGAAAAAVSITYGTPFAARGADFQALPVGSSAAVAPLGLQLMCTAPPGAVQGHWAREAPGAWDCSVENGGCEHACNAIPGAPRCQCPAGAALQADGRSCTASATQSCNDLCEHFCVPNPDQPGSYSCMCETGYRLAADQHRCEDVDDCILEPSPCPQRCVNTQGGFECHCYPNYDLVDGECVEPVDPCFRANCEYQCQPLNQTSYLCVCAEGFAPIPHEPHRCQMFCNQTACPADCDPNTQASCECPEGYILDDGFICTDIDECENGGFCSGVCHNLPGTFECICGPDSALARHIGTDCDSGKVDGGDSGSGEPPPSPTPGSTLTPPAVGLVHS

Binder	Ratio of KD in solution/immobilised for human MSLN-His-Avi [1]	Kd [2] [nM]	Kd [3] [nM]	further results
FS28-256-274 (in CD137 mAb^2 format) (bispecific antibody, V domains shown) VH: EVQLLESGGGLVQPGGSLRLSCAASGFTFTHTYMSWVRQAPGKGLEWVSTISPTYSTTNYADSVKGRFTISRDNNKNTLYLQMNSLRAEDTAVYYCARYNAYHAALDYWGQGTLVTVSS VL: EIVLTQSPGTLSLSPGERATLSCRASQSVSSSYLAWYQQKPGQAPRLLIYGASSRATGIPDRFSGSGSGTDFTLTISRLEPEDFAVYYCQQTVPYPYTFGQGTKVEIK	2.8	19.8	55.9	–
FS28-256-027 (in CD137 mAb^2 format, Table 6) (bispecific antibody, V domains shown) VH: EVQLLESGGGLVQPGGSLRLSCAASGFTFTHTYMSWVRQAPGKGLEWVSNISPTYSTTNYADSVKGRFTISRDNNKNTLYLQMNSLRAEDTAVYYCARYNAYHAALDYWGQGTLVTVSS VL: EIVLTQSPGTLSLSPGERATLSCRASQSVSSSYLAWYQQKPGQAPRLLIYGASSRATGIPDRFSGSGSGTDFTLTISRLEPEDFAVYYCQQTVPYPYTFGQGTKVEIK	0.68	4.7	3.2	–
FS28-256-272 (in CD137 mAb^2 format) (bispecific antibody, V domains shown, Position 55 is IMGT numbering, not the count on the entry) VH: EVQLLESGGGLVQPGGSLRLSCAASGFTFTHTYMSWVRQAPGKGLEWVSHISPTYSTTNYADSVKGRFTISRDNNKNTLYLQMNSLRAEDTAVYYCARYNAYHAALDYWGQGTLVTVSS VL: EIVLTQSPGTLSLSPGERATLSCRASQSVSSSYLAWYQQKPGQAPRLLIYGASSRATGIPDRFSGSGSGTDFTLTISRLEPEDFAVYYCQQTVPYPYTFGQGTKVEIK	0.7	10.7	7.6	–
FS28-256-273 (in CD137 mAb^2 format) (bispecific antibody, V domains shown) VH: EVQLLESGGGLVQPGGSLRLSCAASGFTFTHTYMSWVRQAPGKGLEWVSSISPTYSTTNYADSVKGRFTISRDNNKNTLYLQMNSLRAEDTAVYYCARYNAYHAALDYWGQGTLVTVSS VL: EIVLTQSPGTLSLSPGERATLSCRASQSVSSSYLAWYQQKPGQAPRLLIYGASSRATGIPDRFSGSGSGTDFTLTISRLEPEDFAVYYCQQTVPYPYTFGQGTKVEIK	1.2	6	7.4	–
G1-AA/FS28-185 (antibody, human IgG1, kappa, L234A L235A, V domains shown, IgG1 LALA) VH: EVQLLESGGGLVQPGGSLRLSCAASGFTFTTSAMSWVRQAPGKGLEWVSRINPYEGETNYADSVKGRFTISRDNSKNTLYLQMNSLRAEDTAVYYCARGWSIATYYKSAMDYWGQGTLVTVSS VL: EIVLTQSPGTLSLSPGERATLSCRASQSVSSSYLAWYQQKPGQAPRLLIYGASSRATGIPDRFSGSGSGTDFTLTISRLEPEDFAVYYCQQSSYSAPVTFGQGTKVEIKR	–	–	–	binding result [4]: no binding (tested: 1000 nM); binding result [5]: no binding (tested: 1000 nM); binding result [6]: no binding (tested: 1000 nM); binding result [7]: no binding (tested: 1000 nM); EC50 [8]: ~0.5 nM; maximum binding signal [8]: 3; EC50 [9]: 37.5 nM; Emax (MFI signal) [9]: 2440 MFI; Kd [10]: 37 nM; Kd [11]: 29.6 nM
